In assay [1] the target is recombinant soluble human CD4 (human) (UniProt P01730). Nature of the assay: BIAcore, rCD4 coupled to chip, mAb flowed over (avidity). (In general: In SPR one partner is held on a chip, and binding of the other changes the refractive index at the surface.)
Assay [2] has the same target. Nature of the assay: SPR, sCD4 amine-coupled to sensor chip, mAb flowed over.
For assay [3] the target is unchanged. Nature of the assay: BIAcore, mAb captured by goat anti-human IgG Fc on chip, rCD4 flowed over (affinity).
The target is the same in assay [4]. Nature of the assay: ratio of Ka on rCD4 (BIAcore) to Ka on nCD4 (SupT1 flow cytometry).
Assay [5] shares this target. Nature of the assay: BIAcore on rCD4 (column repeats Table 19).
In assay [6] the target is native human CD4 on the cell surface (human) (UniProt P01730). Nature of the assay: flow cytometry, serial dilutions on SupT1 cells, half-maximal fluorescence.

As usually defined, the koff is a measure of how fast the partners let go of each other. For orientation: kon means a measure of how fast the partners come together. For Leu3a (antibody), in assay [1], the Ka is 3.7e+10 M⁻¹, the koff worked out at 4.2e-06 s⁻¹ and the kon amounted to 150000 M⁻¹ s⁻¹. Besides, in assay [2], the Ka amounted to 3.7e+10 M⁻¹, the dissociation rate constant (koff) is 0.00042 s⁻¹ and the kon worked out at 150000 M⁻¹ s⁻¹.
For the substance chimeric Leu3a (antibody), the Ka in assay [3] was determined as 6.6e+08 M⁻¹; in assay [5] it was 3.4e+10 M⁻¹; in assay [1], 3.4e+10 M⁻¹; in assay [6], 5.6e+09 M⁻¹. Besides, the koff was 0.00023 s⁻¹ in assay [3] and 1.2e-05 s⁻¹ in assay [1]. The kon in assay [3] is 150000 M⁻¹ s⁻¹; in assay [1], 400000 M⁻¹ s⁻¹. Also, in assay [4], the Ratio of Ka (rCD4/nCD4) was 6.1.
